Reference: patent JP2003261460A

Molecular target: Flt-1 (VEGFR-1, fms-like tyrosine kinase-1) of wild-type mice (WF) (mouse) (UniProt P35969)
Test: cell-based or functional assay

Sequence of UniProt P35969 (P35969 23-1333 S1181G): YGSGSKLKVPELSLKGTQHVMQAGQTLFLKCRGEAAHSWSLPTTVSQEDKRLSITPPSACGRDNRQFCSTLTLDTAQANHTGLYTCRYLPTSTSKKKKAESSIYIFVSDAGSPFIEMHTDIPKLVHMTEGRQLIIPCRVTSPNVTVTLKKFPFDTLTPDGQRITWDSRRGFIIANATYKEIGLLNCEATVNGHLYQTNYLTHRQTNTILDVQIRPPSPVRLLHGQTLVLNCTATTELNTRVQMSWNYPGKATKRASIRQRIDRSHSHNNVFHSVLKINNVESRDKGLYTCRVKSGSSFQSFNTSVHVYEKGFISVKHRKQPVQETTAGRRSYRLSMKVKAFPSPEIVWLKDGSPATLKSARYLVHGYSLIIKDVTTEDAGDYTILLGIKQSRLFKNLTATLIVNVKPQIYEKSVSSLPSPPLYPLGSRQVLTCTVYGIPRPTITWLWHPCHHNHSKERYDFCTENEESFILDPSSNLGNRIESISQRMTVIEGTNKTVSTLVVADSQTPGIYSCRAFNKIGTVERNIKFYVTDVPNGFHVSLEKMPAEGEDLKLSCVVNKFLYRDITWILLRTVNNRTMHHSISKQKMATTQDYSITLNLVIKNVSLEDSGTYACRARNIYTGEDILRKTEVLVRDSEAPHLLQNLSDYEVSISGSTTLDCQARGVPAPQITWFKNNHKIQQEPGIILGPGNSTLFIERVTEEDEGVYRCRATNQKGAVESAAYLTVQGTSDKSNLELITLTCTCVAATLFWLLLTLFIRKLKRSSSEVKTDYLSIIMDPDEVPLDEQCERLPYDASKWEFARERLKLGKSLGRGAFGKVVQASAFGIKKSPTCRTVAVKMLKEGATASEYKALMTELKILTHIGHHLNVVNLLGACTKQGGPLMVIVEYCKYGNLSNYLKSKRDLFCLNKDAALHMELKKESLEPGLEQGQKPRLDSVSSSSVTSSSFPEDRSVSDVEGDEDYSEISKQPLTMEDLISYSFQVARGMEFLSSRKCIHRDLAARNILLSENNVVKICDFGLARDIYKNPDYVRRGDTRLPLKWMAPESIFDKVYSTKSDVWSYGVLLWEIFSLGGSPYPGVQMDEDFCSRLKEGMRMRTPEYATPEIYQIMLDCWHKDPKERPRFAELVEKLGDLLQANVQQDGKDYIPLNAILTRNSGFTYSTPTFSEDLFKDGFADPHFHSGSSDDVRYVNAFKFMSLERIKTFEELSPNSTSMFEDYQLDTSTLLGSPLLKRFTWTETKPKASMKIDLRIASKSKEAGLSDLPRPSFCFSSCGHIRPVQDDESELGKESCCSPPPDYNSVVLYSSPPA

Substance: VEGF (R&D社製) (ligand)
- MMP-9誘導 (肺組織培養, ゼラチン基質ザイモグラフィー): 40 ng/mL
